Laboratory results: IntAct's records for PubMed 26388029

B1: Ubiquitin carboxyl-terminal hydrolase 1 (Homo sapiens), O94782 (parent)
chain: MPGVIPSESNGLSRGSPSKKNRLSLKFFQKKETKRALDFTDSQENEEKASEYRASEIDQVVPAAQSSPINCEKRENLLPFVGLNNLGNTCYLNSILQVLYFCPGFKSGVKHLFNIISRKKEALKDEANQKDKGNCKEDSLASYELICSLQSLIISVEQLQASFLLNPEKYTDELATQPRRLLNTLRELNPMYEGYLQHDAQEVLQCILGNIQETCQLLKKEEVKNVAELPTKVEEIPHPKEEMNGINSIEMDSMRHSEDFKEKLPKGNGKRKSDTEFGNMKKKVKLSKEHQSLEENQRQTRSKRKATSDTLESPPKIIPKYISENESPRPSQKKSRVKINWLKSATKQPSILSKFCSLGKITTNQGVKGQSKENECDPEEDLGKCESDNTTNGCGLESPGNTVTPVNVNEVKPINKGEEQIGFELVEKLFQGQLVLRTRCLECESLTERREDFQDISVPVQEDELSKVEESSEISPEPKTEMKTLRWAISQFASVERIVGEDKYFCENCHHYTEAERSLLFDKMPEVITIHLKCFAASGLEFDCYGGGLSKINTPLLTPLKLSLEEWSTKPTNDSYGLFAVVMHSGITISSGHYTASVKVTDLNSLELDKGNFVVDQMCEIGKPEPLNEEEARGVVENYNDEEVSIRVGGNTQPSKVLNKKNVEAIGLLGGQKSKADYELYNKASNPDKVASTAFAENRNSETSDTTGTHESDRNKESSDQTGINISGFENKISYVVQSLKEYEGKWLLFDDSEVKVTEEKDFLNSLSPSTSPTSTPYLLFYKKL

Variants of: B1
Details: with WDR48, Q8TAF3-1
Chain of WDR48, Q8TAF3-1 (Q8TAF3 whole entry): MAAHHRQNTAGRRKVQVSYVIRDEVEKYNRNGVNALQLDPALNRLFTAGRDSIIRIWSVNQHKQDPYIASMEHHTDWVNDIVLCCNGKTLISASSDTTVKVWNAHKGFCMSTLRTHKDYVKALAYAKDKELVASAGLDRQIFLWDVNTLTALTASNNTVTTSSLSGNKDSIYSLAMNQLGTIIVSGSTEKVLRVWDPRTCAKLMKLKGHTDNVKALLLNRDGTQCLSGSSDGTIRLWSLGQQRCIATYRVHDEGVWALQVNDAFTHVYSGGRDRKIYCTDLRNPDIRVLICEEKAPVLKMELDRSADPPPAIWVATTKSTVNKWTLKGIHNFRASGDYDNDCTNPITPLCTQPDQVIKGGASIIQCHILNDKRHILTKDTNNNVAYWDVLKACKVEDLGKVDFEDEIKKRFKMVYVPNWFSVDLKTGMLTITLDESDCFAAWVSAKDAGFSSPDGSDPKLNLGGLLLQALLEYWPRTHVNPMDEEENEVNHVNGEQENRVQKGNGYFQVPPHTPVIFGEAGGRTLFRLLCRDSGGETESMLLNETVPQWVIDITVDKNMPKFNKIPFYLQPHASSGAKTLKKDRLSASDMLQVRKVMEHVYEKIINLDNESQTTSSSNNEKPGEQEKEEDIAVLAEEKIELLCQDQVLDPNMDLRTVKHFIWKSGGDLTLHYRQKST

Row | effect of a mutation on the interaction | Variant
1 | disrupting interaction strength | E444K
